How the values were obtained:
SmN-SNAPIN (human) = SmN-SNAPIN (human) (UniProt O95295); experiment: split reporter (BiFC, NanoBiT)
Flag-M1 = biological target: T1, Flag-M1 (influenza A virus A/WSN/33 (H1N1), UniProt P05777 1-252); experiment: pull-down; settings: both partners purified
T1 construct: also called Flag-tagged M1; M1 protein; not shown: Flag, N-terminal, kept

SmN-SNAPIN = biological target: T2, SmN-SNAPIN (human, UniProt O95295 1-136); experiment: split reporter (BiFC, NanoBiT); settings: partners not purified
T2 construct: also called SNAPIN-SmBiT; not shown: SmBiT, N-terminal, kept
T2 sequence (looked up): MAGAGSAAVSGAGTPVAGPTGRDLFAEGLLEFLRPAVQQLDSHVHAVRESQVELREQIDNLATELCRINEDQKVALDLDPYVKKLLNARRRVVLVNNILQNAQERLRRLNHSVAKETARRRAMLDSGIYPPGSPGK

T1 sequence (P05777 whole entry): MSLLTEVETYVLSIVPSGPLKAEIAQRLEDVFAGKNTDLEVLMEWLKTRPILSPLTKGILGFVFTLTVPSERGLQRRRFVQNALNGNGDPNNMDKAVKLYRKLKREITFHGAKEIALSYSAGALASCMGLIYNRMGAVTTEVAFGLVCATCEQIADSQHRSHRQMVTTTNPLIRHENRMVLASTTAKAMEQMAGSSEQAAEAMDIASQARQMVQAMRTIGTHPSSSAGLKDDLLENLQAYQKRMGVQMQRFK

Question: With LgN-NS2 (natural protein) as the molecule, how does the fold signal increase relative to the negative control (SmN-SNAPIN (human)) read?
Answer: The fold signal increase relative to the negative control was 2.37 fold.

B1: GST-SNAPIN (natural protein, human, UniProt O95295 1-136, looked up)
chain: T2 sequence (looked up)
notes: also called GST-tagged SNAPIN
Question: Does B1 bind (Flag-M1)?
Answer: Result: binds

B2: LgN-M2 (natural protein)
chain: MSLLTEVETPIRNEWGCRCNDSSDPLVIAANIIGILHLILWILDRLFFKCIYRRFKYGLKRGPSTEGVPESMREEYRKEQQNAVDVDDGHFVNIELE
notes: also called matrix protein 2; not shown: LgBiT, N-terminal, kept
Question: Which “fold signal increase relative to the negative control” value (SmN-SNAPIN) does the source give for B2 here?
Answer: The value was 8.62 fold.

Source: publication PMC12730228, “Targeted NanoBiT Screening Identifies a Novel Interaction Between SNAPIN and Influenza A Virus M1 Protein” (Biology, 2025)
